From IntAct's records for PubMed 23770679

B1: Microtubule protein alp7 (Schizosaccharomyces pombe (strain ATCC 38366 / 972)), Q9URY2 (parent)
chain: MSDIVSSSTDYSRRSPSSSSIGTNETDHTGFHEKRQGASSESLIPPAQRSSEESMPAPKLFPKLTSKPNPQLNLKDTLNKRVSDRLQALELNKSFDFSGTPRPMHPISHPLSQHKTPEFKHRKRNVESILTPKNPSLFSSSNAASQRGSLNTAPSNFAYSHSSSLQTSASSRPPVLSNGSFPRQTNTAPLNPPVHLKDNIRNSATPSTSQADIPTQYPINSTQKQQAKYEAEIEGYKAKLAGTYHEISVLQNTIVNVSGQLIAVNDQLQQLRSGKASTSPSTKDTNMRLVEGHNEETLALQRGKYTQEEVDKLIQERMEKVAEDLHAQYSAKHTQKINAFKANYARKYEATIQELQNQIGTAPNAPKISNSNWEEERRALKADNQTLQKQLEKAIQERQDMSDFLNNFKADMAKSDKLLMQQQSQQTGDLETLRLQLQALQEELRVEREERQQLIQMSEDLVIAMDQLNLEQKS
partner: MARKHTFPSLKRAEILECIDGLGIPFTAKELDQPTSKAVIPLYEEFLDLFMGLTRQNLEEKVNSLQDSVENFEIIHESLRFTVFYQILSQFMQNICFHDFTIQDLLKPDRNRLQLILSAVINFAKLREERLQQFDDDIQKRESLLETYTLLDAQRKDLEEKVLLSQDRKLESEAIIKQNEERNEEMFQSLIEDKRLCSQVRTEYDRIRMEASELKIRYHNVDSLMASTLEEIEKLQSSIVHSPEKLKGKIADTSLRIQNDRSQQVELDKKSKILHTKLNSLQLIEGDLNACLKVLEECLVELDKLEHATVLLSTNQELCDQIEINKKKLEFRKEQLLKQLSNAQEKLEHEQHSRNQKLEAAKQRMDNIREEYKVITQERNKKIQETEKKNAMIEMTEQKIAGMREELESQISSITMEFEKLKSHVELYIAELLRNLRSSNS
B2: Microtubule protein alp7 (Schizosaccharomyces pombe (strain ATCC 38366 / 972)), Q9URY2 (parent)
chain: B1 chain
partner: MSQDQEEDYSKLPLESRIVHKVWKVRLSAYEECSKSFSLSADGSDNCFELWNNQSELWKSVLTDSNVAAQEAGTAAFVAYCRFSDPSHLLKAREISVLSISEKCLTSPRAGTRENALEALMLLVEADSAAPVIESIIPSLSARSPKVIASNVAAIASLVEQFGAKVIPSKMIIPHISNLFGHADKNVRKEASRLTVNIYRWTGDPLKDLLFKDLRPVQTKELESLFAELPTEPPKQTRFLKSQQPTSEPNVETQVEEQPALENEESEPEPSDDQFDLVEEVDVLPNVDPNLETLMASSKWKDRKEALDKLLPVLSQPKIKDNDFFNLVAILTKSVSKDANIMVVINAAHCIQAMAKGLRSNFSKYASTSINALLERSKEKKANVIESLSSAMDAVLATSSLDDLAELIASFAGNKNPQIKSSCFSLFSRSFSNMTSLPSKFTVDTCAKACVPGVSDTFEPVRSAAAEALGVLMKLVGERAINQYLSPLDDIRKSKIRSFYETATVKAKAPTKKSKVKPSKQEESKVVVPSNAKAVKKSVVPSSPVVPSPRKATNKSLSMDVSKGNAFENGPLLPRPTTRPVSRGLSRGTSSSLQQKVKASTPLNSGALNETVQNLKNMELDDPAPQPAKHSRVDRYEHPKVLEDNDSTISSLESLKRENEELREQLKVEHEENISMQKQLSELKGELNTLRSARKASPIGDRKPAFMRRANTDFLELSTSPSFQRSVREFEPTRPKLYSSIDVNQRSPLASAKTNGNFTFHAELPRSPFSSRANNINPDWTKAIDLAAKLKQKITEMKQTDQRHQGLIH

Variants of: B1
Details: with nuf2_schpo nuf2, Q10173

effect of a mutation on the interaction | Variant
disrupting interaction strength | MSDIVSSSTDYSRRSPSSSSIGTNETDHTGFHEKRQGASSESLIPPAQRSSEESMPAPKLFPKLTSKPNPQLNLKDTLNKRVSDRLQALELNKSFDFSGTPRPMHPISHPLSQHKTPEFKHRKRNVESILTPKNPSLFSSSNAASQRGSLNTAPSNFAYSHSSSLQTSASSRPPVLSNGSFPRQTNTAPLNPPVHLKDNIRNSATPSTSQADIPTQYPINSTQKQQAKYEAEIEGYKAKLAGTYHEIAVLQNTIVNVSGQLIAVNDQLQQLRSGKASTSPSTKDTNMRLVEGHNEEALALQRGKYTQEEVDKLIQERMEKVAEDLHAQYSAKHTQKINAFKANYARKYEAAIQELQNQIGTAPNAPKISNSNWEEERRALKADNQTLQKQLEKAIQERQDMADFLNNFKADMAKSDKLLMQQQSQQTGDLETLRLQLQALQEELRVEREERQQLIQMSEDLVIAMDQLNLEQKS [S248A;T297A;T351A;S402A]

Variants of: B2
Details: with alp14_schpo alp14, O94534

effect of a mutation on the interaction | Variant
disrupting interaction strength | MSDIVSSSTDYSRRSPSSSSIGTNETDHTGFHEKRQGASSESLIPPAQRSSEESMPAPKLFPKLTSKPNPQLNLKDTLNKRVSDRLQALELNKSFDFSGTPRPMHPISHPLSQHKTPEFKHRKRNVESILTPKNPSLFSSSNAASQRGSLNTAPSNFAYSHSSSLQTSASSRPPVLSNGSFPRQTNTAPLNPPVHLKDNIRNSATPSTSQADIPTQYPINSTQKQQAKYEAEIEGYKAKLAGTYHEISVLQNTIVNVSGQLIAVNDQLQQLRSGKASTSPSTKDTNMRLVEGHNEETLALQRGKYTQEEVDKLIQERMEKVAEDLHAQYSAKHTQKINAFKANYARKYEATIQELQNQIGTAPNAPKISNSNWEEERRALKADNQTLQKQLEKAIQERQDMSDFLNNFKADMAKSDKLLMQQQSQQTGDLETLRLQLQALQEELRVEREERQQLIQMSEDAVIAMDQLNLEQKS [L461A]
